Molecular target: ROD (human) (UniProt P50748)
Experiment: AUC

stoichiometry N: 2
Substance: ROD, P50748 1-2209

— article PMC5379955
